IntAct's records for PubMed 21385318

B1: Kinase non-catalytic C-lobe domain-containing protein 1 (Mus musculus), Q0KK55 (parent)
chain: MQAMDPASRGFYEEDGKDLDFYDFEPLPTLPEDEENVSLADILSLRDRGLSEQEAWAVCLECSLSMRSVAHAAIFQTLCITPDTLAFNTSGNVCFMEQLSDDPEGAFVPPEFDLTGNTFEAHIYSLGATLKAALEYVPEPELEPKLSTDLEGLLSQMQAEDPRERPDLASIIALCEEKMQPVSSCRLCRSLSAIGRRVLSIESFGAFQELSENTWRGRPAPRNVGPKKMPGDLSTDPEALFPSKGLLQPPASRDAEQEAGQRPRAPSPKPLLSAPVRNGENPGQEGLADLVLDARCPLGELDRDNLRRSRLKKAQTFPRLLQESTETSTLCLSLNGSRNQLAISEFFPPDPRKLFLEGKNGLSGFKTQSKSRLWPEQEPGVQLDKTPGAGRNPHRSPGASGQLEASSPSQGSVEYKPSPSPVDAGDSDHEGHIPRSEEKIPEESRQPGSTATEQSLSLKDLLSKLGRPFREYELWALCLSCLSTLQTHKEHPAHLCLDNVLVAEDGTVFFGPPPANGAYNSLFLAPEVSEEKLVTEKASVYCVAAVLWTAAKFSVPRDHKLALPRRLKTLLLDMARRHASERPSAAEAIKVCSSYLLQRGMDSSKILAHLRASTCKVHPEEETIGLQNAFSVVELKSTTAPAPESSPGFLQVSNDTKLVAVPGPVPGLPPCCKEACELPAAFTSEATHFKPIVLAQDASVTRDQLALPSESNEKPKEGSGHLDREGTRKQAALELVEATDLKMSNQLSPGPELQGATPDPDGDSGSPSSATECSCPHGPALVTQQKGTSGTPSSPASSLPPEHRPDGEGPLGTTVLPGPTSASQGSRHPCKPPRGKAAASPSSPRGSDGHPEKPRPADRKLCPSSVDTSSPPKMTACPSLQEAMRLIQEEFAFDGYMDNGLEALIMGEYIYALKDLTFATFCGAISEKFCDLYWDEQLLKNLFKVVNGPASPSESTSEEPGSQPEHSPSRCSLSSKRPSLHGLGKEKPATTWGSGGPCSPTALSDIDSDTLSQGNFEVGFRSQKSIKVTREQQPEAEVGGQPGPSQDSTSHASDTVARLARSEDGGPAGSPGASDFQNCSPGWSSAFYEADCFGADVYNYVKDLERQKTNGHTELEAQSPELEQQLMIEKRNYRKTLKFYQKLLQKEKRNKGSEVRTMLSKLRGQLDEMKSKVQFLSLVKKYLQVMYAERWGLEPCALPVIVNIAAAPCDTLDFSPLDESSSLIFYNVNKHPGSGRQKKARILQAGTPLGLMAYLYSSDAFLEGYVQQFLYTFRYFCTPHDFLHFLLDRISSTLSRAHQDPTSTFTKIYRRSLCVLQAWVEDCYTVDFIRNAGLLGQLEDFISSKILPLDGTAEHLLALLEVGTERRADSASRGADLEDPKEAEEDTRPFNALCKRFSEDGITRKSFSWRLPRGNGLVLPHHKERQYTIASALPKPCFFEDFYGPYAKASEKGPYFLTEYSTNQLFTQLTLLQQELFQKCHPVHFLNSRALGVMDKSAAIPKASSSESLSAKTCSLFLPNYVQDKYLLQLLRNADDVSTWVAAEIVTSHTSKLQVNLLSKFLLIAKSCYEQRNFATAMQILGGLEHLAVRQSPAWRILPAKIAEVMEELKAVEVFLKSDSLCLMEGRRFRAQPTLPSAHLLAMHIQQLETGGFTMTNGAHRWSKLRNIAKVASQVHAFQENPYTFSPDPKLQAHLKQRIARFSGADVSILAADNRANFHQIPGEKHSRKIQDKLRRMKATFQ

Variants of: B1
Settings: with mtap2_mouse Map2, P20357
mtap2_mouse Map2, P20357, sequence (P20357 whole entry): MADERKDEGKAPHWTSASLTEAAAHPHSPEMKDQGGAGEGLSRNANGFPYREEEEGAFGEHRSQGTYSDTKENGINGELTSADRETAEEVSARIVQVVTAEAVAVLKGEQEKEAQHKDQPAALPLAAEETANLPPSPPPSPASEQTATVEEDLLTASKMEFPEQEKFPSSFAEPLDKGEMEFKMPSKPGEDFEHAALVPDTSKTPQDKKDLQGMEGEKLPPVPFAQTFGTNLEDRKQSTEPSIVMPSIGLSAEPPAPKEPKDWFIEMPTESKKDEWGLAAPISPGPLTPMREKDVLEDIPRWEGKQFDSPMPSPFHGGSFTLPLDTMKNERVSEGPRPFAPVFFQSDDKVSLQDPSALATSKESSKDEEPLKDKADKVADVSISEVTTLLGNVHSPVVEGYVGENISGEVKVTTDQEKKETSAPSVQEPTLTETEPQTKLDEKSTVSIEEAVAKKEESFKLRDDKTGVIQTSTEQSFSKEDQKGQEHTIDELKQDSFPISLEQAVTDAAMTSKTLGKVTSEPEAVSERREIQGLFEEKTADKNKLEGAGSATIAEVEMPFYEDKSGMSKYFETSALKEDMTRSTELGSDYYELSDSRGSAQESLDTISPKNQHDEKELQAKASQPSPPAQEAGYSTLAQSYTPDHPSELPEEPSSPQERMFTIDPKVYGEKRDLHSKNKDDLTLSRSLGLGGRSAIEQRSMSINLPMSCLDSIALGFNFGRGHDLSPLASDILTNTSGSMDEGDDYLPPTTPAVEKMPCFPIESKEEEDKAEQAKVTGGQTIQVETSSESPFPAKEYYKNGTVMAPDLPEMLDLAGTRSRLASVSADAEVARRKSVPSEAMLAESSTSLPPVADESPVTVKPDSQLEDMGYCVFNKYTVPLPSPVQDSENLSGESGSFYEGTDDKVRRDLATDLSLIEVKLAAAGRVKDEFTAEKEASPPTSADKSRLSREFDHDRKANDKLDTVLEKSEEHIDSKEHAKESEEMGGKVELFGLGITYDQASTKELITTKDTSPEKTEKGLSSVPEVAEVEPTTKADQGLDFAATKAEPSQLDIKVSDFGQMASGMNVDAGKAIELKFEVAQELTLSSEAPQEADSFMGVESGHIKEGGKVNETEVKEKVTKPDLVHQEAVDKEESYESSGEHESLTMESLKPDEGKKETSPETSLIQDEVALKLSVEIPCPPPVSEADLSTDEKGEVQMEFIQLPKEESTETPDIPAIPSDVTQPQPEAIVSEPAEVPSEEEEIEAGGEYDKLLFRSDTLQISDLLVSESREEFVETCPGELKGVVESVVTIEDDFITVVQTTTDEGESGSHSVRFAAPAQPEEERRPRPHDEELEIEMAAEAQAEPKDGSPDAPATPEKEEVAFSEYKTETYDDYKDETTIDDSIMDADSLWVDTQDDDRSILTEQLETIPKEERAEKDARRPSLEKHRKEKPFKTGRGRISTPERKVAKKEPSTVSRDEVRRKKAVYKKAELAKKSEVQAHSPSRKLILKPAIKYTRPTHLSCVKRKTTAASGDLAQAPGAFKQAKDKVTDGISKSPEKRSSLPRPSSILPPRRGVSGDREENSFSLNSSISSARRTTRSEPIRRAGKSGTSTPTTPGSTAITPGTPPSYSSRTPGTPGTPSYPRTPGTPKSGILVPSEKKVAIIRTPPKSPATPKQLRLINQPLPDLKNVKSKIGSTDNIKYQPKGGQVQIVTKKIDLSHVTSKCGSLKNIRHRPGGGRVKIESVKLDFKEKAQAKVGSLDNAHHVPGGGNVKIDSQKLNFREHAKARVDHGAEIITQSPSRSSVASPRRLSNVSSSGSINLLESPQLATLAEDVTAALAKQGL

| effect of a mutation on the interaction | Variant |
| --- | --- |
| disrupting interaction | L461A |

Variants of: B1
Settings: with mtap2_mouse Map2, P20357
Remark: another data set of the same source

| effect of a mutation on the interaction | Variant |
| --- | --- |
| disrupting interaction | L477A |

Variants of: B1
Settings: with mtap2_mouse Map2, P20357
Remark: another data set of the same source

| effect of a mutation on the interaction | Variant |
| --- | --- |
| disrupting interaction | L474A |
